Measured values reported in PMC8044227, “Cardiolipin enhances the enzymatic activity of cytochrome bd and cytochrome bo3 solubilized in dodecyl-maltoside” (Scientific Reports, 2021).

B1: cytochrome bd (E. coli) (Escherichia coli K-12) (protein)
chain: MLDIVELSRLQFALTAMYHFLFVPLTLGMAFLLAIMETVYVLSGKQIYKDMTKFWGKLFGINFALGVATGLTMEFQFGTNWSYYSHYVGDIFGAPLAIEGLMAFFLESTFVGLFFFGWDRLGKVQHMCVTWLVALGSNLSALWILVANGWMQNPIASDFNFETMRMEMVSFSELVLNPVAQVKFVHTVASGYVTGAMFILGISAWYMLKGRDFAFAKRSFAIAASFGMAAVLSVIVLGDESGYEMGDVQKTKLAAIEAEWETQPAPAAFTLFGIPDQEEETNKFAIQIPYALGIIATRSVDTPVIGLKELMVQHEERIRNGMKAYSLLEQLRSGSTDQAVRDQFNSMKKDLGYGLLLKRYTPNVADATEAQIQQATKDSIPRVAPLYFAFRIMVACGFLLLAIIALSFWSVIRNRIGEKKWLLRAALYGIPLPWIAVEAGWFVAEYGRQPWAIGEVLPTAVANSSLTAGDLIFSMVLICGLYTLFLVAELFLMFKFARLGPSSLKTGRYHFEQSSTTTQPAR
notes: CydABX complex, Strep-tag, expressed in E. coli MB43, streptactin-purified in DDM
B2: cytochrome bo3 (E. coli) (Escherichia coli K-12) (protein)
chain: MFGKLSLDAVPFHEPIVMVTIAGIILGGLALVGLITYFGKWTYLWKEWLTSVDHKRLGIMYIIVAIVMLLRGFADAIMMRSQQALASAGEAGFLPPHHYDQIFTAHGVIMIFFVAMPFVIGLMNLVVPLQIGARDVAFPFLNNLSFWFTVVGVILVNVSLGVGEFAQTGWLAYPPLSGIEYSPGVGVDYWIWSLQLSGIGTTLTGINFFVTILKMRAPGMTMFKMPVFTWASLCANVLIIASFPILTVTVALLTLDRYLGTHFFTNDMGGNMMMYINLIWAWGHPEVYILILPVFGVFSEIAATFSRKRLFGYTSLVWATVCITVLSFIVWLHHFFTMGAGANVNAFFGITTMIIAIPTGVKIFNWLFTMYQGRIVFHSAMLWTIGFIVTFSVGGMTGVLLAVPGADFVLHNSLFLIAHFHNVIIGGVVFGCFAGMTYWWPKAFGFKLNETWGKRAFWFWIIGFFVAFMPLYALGFMGMTRRLSQQIDPQFHTMLMIAASGAVLIALGILCLVIQMYVSIRDRDQNRDLTGDPWGGRTLEWATSSPPPFYNFAVVPHVHERDAFWEMKEKGEAYKKPDHYEEIHMPKNSGAGIVIAAFSTIFGFAMIWHIWWLAIVGFAGMIITWIVKSFDEDVDYYVPVAEIEKLENQHFDEITKAGLKNGN
notes: His-tagged complex overexpressed in E. coli GO105/pJRhisA, Ni-Sepharose-purified in DDM

Substrate: COc1c(O)c(C)c(CC=C(C)C)c(O)c1OC
Assay: O2 consumption, Clark-type electrode
Assay type: biochemical, Escherichia coli
Conditions: no cardiolipin, 0.025% DDM, 50 mM MOPS, 100 mM NaCl, pH 7.5, 37 °C, 10 mM DTT

Row | Protein | Km [µM]
1 | B1 | 95 ± 16
2 | B2 | 56 ± 13
